{
  "source": "patent US20230002480A1",
  "assay_in_all_cases": "cell-based or functional assay",
  "key": {"[1]": {"molecular_target": "HIV-1 Env of pseudovirus Q769.d22 (HIV-1)"}, "[2]": {"molecular_target": "HIV-1 Env of pseudovirus CNE8 (HIV-1)"}, "[3]": {"molecular_target": "HIV-1 Env of pseudovirus Du156.12 (HIV-1)"}, "[4]": {"molecular_target": "HIV-1 Env of pseudovirus Q461.e2 (HIV-1)"}, "[5]": {"molecular_target": "HIV-1 Env of pseudovirus HIV-16845-2.22 (HIV-1)"}, "[6]": {"molecular_target": "HIV-1 Env of pseudovirus CNE5 (HIV-1)"}, "[7]": {"molecular_target": "HIV-1 Env of pseudovirus ZM109F.PB4 (HIV-1)"}, "[8]": {"molecular_target": "HIV-1 Env of pseudovirus 211-9 (HIV-1)"}, "[9]": {"molecular_target": "HIV-1 Env of pseudovirus 231966.c02 (HIV-1)"}, "[10]": {"molecular_target": "HIV-1 Env of pseudovirus 263-8 (HIV-1)"}, "[11]": {"molecular_target": "HIV-1 Env of pseudovirus CNE17 (HIV-1)"}, "[12]": {"molecular_target": "HIV-1 Env of pseudovirus MS208.A1 (HIV-1)"}, "[13]": {"molecular_target": "HIV-1 Env of pseudovirus 928-28 (HIV-1)"}, "[14]": {"molecular_target": "HIV-1 Env of pseudovirus ZM247v1(Rev-) (HIV-1)"}, "[15]": {"molecular_target": "HIV-1 Env of pseudovirus Ce1172_H1 (HIV-1)"}, "[16]": {"molecular_target": "HIV-1 Env of pseudovirus Q259.d2.17 (HIV-1)"}, "[17]": {"molecular_target": "HIV-1 Env of pseudovirus Q842.d12 (HIV-1)"}, "[18]": {"molecular_target": "HIV-1 Env of pseudovirus Ce1086_B2 (HIV-1)"}, "[19]": {"molecular_target": "HIV-1 Env of pseudovirus X2088_c9 (HIV-1)"}, "[20]": {"molecular_target": "HIV-1 Env of pseudovirus Ce2010_F5 (HIV-1)"}, "[21]": {"molecular_target": "HIV-1 Env of pseudovirus 620345.c01 (HIV-1)"}, "[22]": {"molecular_target": "HIV-1 Env of pseudovirus 6535.3 (HIV-1)"}, "[23]": {"molecular_target": "HIV-1 Env of pseudovirus CNE19 (HIV-1)"}, "[24]": {"molecular_target": "HIV-1 Env of pseudovirus CNE58 (HIV-1)"}, "[25]": {"molecular_target": "HIV-1 Env of pseudovirus Ce2060_G9 (HIV-1)"}, "[26]": {"molecular_target": "HIV-1 Env of pseudovirus WEAU_d15_410_787 (HIV-1)"}, "[27]": {"molecular_target": "HIV-1 Env of pseudovirus PVO.4 (HIV-1)"}, "[28]": {"molecular_target": "HIV-1 Env of pseudovirus P1981_C5_3 (HIV-1)"}, "[29]": {"molecular_target": "HIV-1 Env of pseudovirus 3301.v1.c24 (HIV-1)"}, "[30]": {"molecular_target": "HIV-1 Env of pseudovirus A07412M1.vrc12 (HIV-1)"}, "[31]": {"molecular_target": "HIV-1 Env of pseudovirus ZM249M.PL1 (HIV-1)"}, "[32]": {"molecular_target": "HIV-1 Env of pseudovirus Ce0682_E4 (HIV-1)"}, "[33]": {"molecular_target": "HIV-1 Env of pseudovirus BJOX028000.10.3 (HIV-1)"}, "[34]": {"molecular_target": "HIV-1 Env of pseudovirus QH0692.42 (HIV-1)"}, "[35]": {"molecular_target": "HIV-1 Env of pseudovirus 6041.v3.c23 (HIV-1)"}, "[36]": {"molecular_target": "HIV-1 Env of pseudovirus 1054_07_TC4_1499 (HIV-1)"}},
  "data": [
    {"substance": "PGT151 (antibody)", "values": [
      {"measurement": "IC50", "setting": "[1]", "value": "> 50", "unit": "µg/mL"},
      {"measurement": "IC80", "setting": "[1]", "value": "> 50", "unit": "µg/mL"},
      {"measurement": "IC50, titer in TZM.bl cells", "setting": "[2]", "value": "> 50", "unit": "µg/mL"},
      {"measurement": "IC80, titer in TZM.bl cells", "setting": "[2]", "value": "> 50", "unit": "µg/mL"},
      {"measurement": "IC50", "setting": "[3]", "value": 0.005, "unit": "µg/mL"},
      {"measurement": "IC80", "setting": "[3]", "value": 0.023, "unit": "µg/mL"},
      {"measurement": "IC50", "setting": "[4]", "value": 12.6, "unit": "µg/mL"},
      {"measurement": "IC80", "setting": "[4]", "value": "> 50", "unit": "µg/mL"},
      {"measurement": "IC50", "setting": "[5]", "value": "> 50", "unit": "µg/mL"},
      {"measurement": "IC80", "setting": "[5]", "value": "> 50", "unit": "µg/mL"},
      {"measurement": "IC50, titer in TZM.bl cells", "setting": "[6]", "value": "> 50", "unit": "µg/mL"},
      {"measurement": "IC80, titer in TZM.bl cells", "setting": "[6]", "value": "> 50", "unit": "µg/mL"},
      {"measurement": "IC50", "setting": "[7]", "value": 0.609, "unit": "µg/mL"},
      {"measurement": "IC80", "setting": "[7]", "value": "> 50", "unit": "µg/mL"},
      {"measurement": "IC50, titer in TZM.bl cells", "setting": "[8]", "value": 0.002, "unit": "µg/mL"},
      {"measurement": "IC80, titer in TZM.bl cells", "setting": "[8]", "value": 0.01, "unit": "µg/mL"},
      {"measurement": "IC50, titer in TZM.bl cells", "setting": "[9]", "value": 0.025, "unit": "µg/mL"},
      {"measurement": "IC80, titer in TZM.bl cells", "setting": "[9]", "value": 0.183, "unit": "µg/mL"},
      {"measurement": "IC50", "setting": "[10]", "value": "> 50", "unit": "µg/mL"},
      {"measurement": "IC80", "setting": "[10]", "value": "> 50", "unit": "µg/mL"},
      {"measurement": "IC50", "setting": "[11]", "value": 0.093, "unit": "µg/mL"},
      {"measurement": "IC80", "setting": "[11]", "value": "> 50", "unit": "µg/mL"},
      {"measurement": "IC50", "setting": "[12]", "value": "< 0.001", "unit": "µg/mL"},
      {"measurement": "IC80", "setting": "[12]", "value": 0.003, "unit": "µg/mL"},
      {"measurement": "IC50", "setting": "[13]", "value": "> 50", "unit": "µg/mL"},
      {"measurement": "IC80", "setting": "[13]", "value": "> 50", "unit": "µg/mL"},
      {"measurement": "IC50", "setting": "[14]", "value": 0.009, "unit": "µg/mL"},
      {"measurement": "IC80", "setting": "[14]", "value": "> 50", "unit": "µg/mL"},
      {"measurement": "IC50", "setting": "[15]", "value": "> 50", "unit": "µg/mL"},
      {"measurement": "IC80", "setting": "[15]", "value": "> 50", "unit": "µg/mL"},
      {"measurement": "IC50", "setting": "[16]", "value": "> 50", "unit": "µg/mL"},
      {"measurement": "IC80", "setting": "[16]", "value": "> 50", "unit": "µg/mL"},
      {"measurement": "IC50", "setting": "[17]", "value": 0.001, "unit": "µg/mL"},
      {"measurement": "IC80", "setting": "[17]", "value": 0.014, "unit": "µg/mL"},
      {"measurement": "IC50", "setting": "[18]", "value": 2.65, "unit": "µg/mL"},
      {"measurement": "IC80", "setting": "[18]", "value": "> 50", "unit": "µg/mL"},
      {"measurement": "IC50, titer in TZM.bl cells", "setting": "[19]", "value": "> 50", "unit": "µg/mL"},
      {"measurement": "IC80, titer in TZM.bl cells", "setting": "[19]", "value": "> 50", "unit": "µg/mL"},
      {"measurement": "IC50", "setting": "[20]", "value": "> 50", "unit": "µg/mL"},
      {"measurement": "IC80", "setting": "[20]", "value": "> 50", "unit": "µg/mL"},
      {"measurement": "IC50, titer in TZM.bl cells", "setting": "[21]", "value": "> 50", "unit": "µg/mL"},
      {"measurement": "IC80, titer in TZM.bl cells", "setting": "[21]", "value": "> 50", "unit": "µg/mL"},
      {"measurement": "IC50", "setting": "[22]", "value": "< 0.001", "unit": "µg/mL"},
      {"measurement": "IC80", "setting": "[22]", "value": 0.012, "unit": "µg/mL"},
      {"measurement": "IC50", "setting": "[23]", "value": 0.014, "unit": "µg/mL"},
      {"measurement": "IC80", "setting": "[23]", "value": "> 50", "unit": "µg/mL"},
      {"measurement": "IC50", "setting": "[24]", "value": 0.004, "unit": "µg/mL"},
      {"measurement": "IC80", "setting": "[24]", "value": 0.016, "unit": "µg/mL"},
      {"measurement": "IC50", "setting": "[25]", "value": 0.135, "unit": "µg/mL"},
      {"measurement": "IC80", "setting": "[25]", "value": "> 50", "unit": "µg/mL"},
      {"measurement": "IC50", "setting": "[26]", "value": 0.01, "unit": "µg/mL"},
      {"measurement": "IC80", "setting": "[26]", "value": "> 50", "unit": "µg/mL"},
      {"measurement": "IC50", "setting": "[27]", "value": 0.017, "unit": "µg/mL"},
      {"measurement": "IC80", "setting": "[27]", "value": "> 50", "unit": "µg/mL"},
      {"measurement": "IC50, titer in TZM.bl cells", "setting": "[28]", "value": 0.021, "unit": "µg/mL"},
      {"measurement": "IC80, titer in TZM.bl cells", "setting": "[28]", "value": "> 50", "unit": "µg/mL"},
      {"measurement": "IC50, titer in TZM.bl cells", "setting": "[29]", "value": 0.002, "unit": "µg/mL"},
      {"measurement": "IC80, titer in TZM.bl cells", "setting": "[29]", "value": 0.019, "unit": "µg/mL"},
      {"measurement": "IC50, titer in TZM.bl cells", "setting": "[30]", "value": 0.246, "unit": "µg/mL"},
      {"measurement": "IC80, titer in TZM.bl cells", "setting": "[30]", "value": "> 50", "unit": "µg/mL"},
      {"measurement": "IC50", "setting": "[31]", "value": 0.004, "unit": "µg/mL"},
      {"measurement": "IC80", "setting": "[31]", "value": 0.015, "unit": "µg/mL"},
      {"measurement": "IC50", "setting": "[32]", "value": "> 50", "unit": "µg/mL"},
      {"measurement": "IC80", "setting": "[32]", "value": "> 50", "unit": "µg/mL"},
      {"measurement": "IC50, titer in TZM.bl cells", "setting": "[33]", "value": "> 50", "unit": "µg/mL"},
      {"measurement": "IC80, titer in TZM.bl cells", "setting": "[33]", "value": "> 50", "unit": "µg/mL"},
      {"measurement": "IC50", "setting": "[34]", "value": 0.029, "unit": "µg/mL"},
      {"measurement": "IC80", "setting": "[34]", "value": 0.522, "unit": "µg/mL"},
      {"measurement": "IC50, titer in TZM.bl cells", "setting": "[35]", "value": 0.004, "unit": "µg/mL"},
      {"measurement": "IC80, titer in TZM.bl cells", "setting": "[35]", "value": 0.024, "unit": "µg/mL"},
      {"measurement": "IC50", "setting": "[36]", "value": 0.008, "unit": "µg/mL"},
      {"measurement": "IC80", "setting": "[36]", "value": 0.032, "unit": "µg/mL"}
    ]}
  ]
}
